Source: EP2651411B1

Assays:
[1] = molecular target: gastrin-releasing peptide receptor on PC-3 cells (UniProt P30550); test: competition with ^125I-BBN for binding to PC-3 cells, inhibitor 250 to 2 nM
[2] = molecular target: gastrin-releasing peptide receptor on PC-3 cells (UniProt P30550); test: competition with ^125I-Bombesin for binding to 3x10^6 PC-3 cells, inhibitor 56 to 0.44 nM
[3] = molecular target: somatostatin receptors on AR42J cells (rat); test: apparent IC50; competition with ^111In(DTPA-octreotide) on AR42J cells, 3 h at RT
[4] = molecular target: carcinoembryonic antigen (CEA) (UniProt P06731); test: SEC-HPLC; the conjugate without CEA eluted at 10.312 min and 10.331 min in serum
UniProt P06731, sequence (P06731 35-685 limits assumed): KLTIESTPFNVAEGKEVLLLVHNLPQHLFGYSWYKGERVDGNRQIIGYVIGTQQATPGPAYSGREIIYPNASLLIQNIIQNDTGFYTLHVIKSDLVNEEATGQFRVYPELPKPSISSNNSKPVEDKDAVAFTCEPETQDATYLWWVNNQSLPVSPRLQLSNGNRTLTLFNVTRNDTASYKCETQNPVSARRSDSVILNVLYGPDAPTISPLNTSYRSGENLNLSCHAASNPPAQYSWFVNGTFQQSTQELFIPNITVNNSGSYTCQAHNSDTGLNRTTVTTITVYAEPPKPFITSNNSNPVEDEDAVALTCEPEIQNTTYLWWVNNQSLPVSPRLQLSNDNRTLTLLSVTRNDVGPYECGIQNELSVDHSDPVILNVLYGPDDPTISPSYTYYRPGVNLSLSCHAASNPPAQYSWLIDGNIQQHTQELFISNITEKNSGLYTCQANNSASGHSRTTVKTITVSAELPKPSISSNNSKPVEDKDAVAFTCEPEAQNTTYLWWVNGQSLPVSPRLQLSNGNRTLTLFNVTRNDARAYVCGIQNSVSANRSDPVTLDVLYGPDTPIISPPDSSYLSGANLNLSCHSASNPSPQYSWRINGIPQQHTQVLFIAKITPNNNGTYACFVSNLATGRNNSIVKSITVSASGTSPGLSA

UniProt P30550, sequence (P30550 whole entry): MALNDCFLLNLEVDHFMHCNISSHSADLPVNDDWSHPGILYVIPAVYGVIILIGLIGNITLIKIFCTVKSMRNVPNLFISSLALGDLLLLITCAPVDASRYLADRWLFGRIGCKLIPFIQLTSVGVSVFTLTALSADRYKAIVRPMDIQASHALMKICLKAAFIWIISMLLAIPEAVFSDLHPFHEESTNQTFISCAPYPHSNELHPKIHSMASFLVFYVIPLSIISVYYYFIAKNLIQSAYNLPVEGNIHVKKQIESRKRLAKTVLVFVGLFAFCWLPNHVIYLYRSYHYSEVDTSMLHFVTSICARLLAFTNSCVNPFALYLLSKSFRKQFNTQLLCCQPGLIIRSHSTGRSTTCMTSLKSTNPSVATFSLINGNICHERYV

“IMP468 (NOTA-NH-(CH2)7CO-Gln-Trp-Val-Trp-Ala-Val-Gly-His-Leu-Met-NH2) (peptide)” gave an IC50 [1] of 0.0359 µM and an IC50 [2] of 0.0215 µM.
“commercially available BBN peptide (bombesin positive control)” showed an IC50 [1] of 0.0244 µM.
In the case of “Al^19F(IMP466) (Al^19F complex of NOTA-D-Phe-Cys-Phe-D-Trp-Lys-Thr-Cys-Throl) (peptide)”, the IC50 [3] is reported as 0.0036 µM.
In the case of “^69Ga(IMP466) (^69Ga complex of NOTA-D-Phe-Cys-Phe-D-Trp-Lys-Thr-Cys-Throl) (peptide)”, the IC50 [3] is reported as 0.013 µM.
^115In(DTPA-octreotide) (peptide) showed an IC50 [3] of 0.0063 µM.
Substance Al^18F(NODA-MPAES)-hMN-14 Fab' has an SEC-HPLC retention time of the major product after adding CEA [4] of 7.21 min.
